Results reported in US7718768B2, “Biologically active peptide [sequence]” (CMS Peptides Patent Holding Company Limited, priority 2001, dated 2010).

Experiments:
Assay type in all cases: in vivo, BALB/c mice
T lymphocyte = T lymphocyte transformation test (ConA, MTT) on spleen cells of treated mice; set-up: key: OD of assay wells divided by OD of control wells; conditions: IFN-γ and IL-2 groups 3×10^5 IU/kg/day, X ± SD
In short: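 Mice (10/group) were dosed i.p. in saline once daily for 15 days; spleen cells were harvested the next day. Cells at 1×10^6/ml were stimulated with ConA (100 μg/ml stock) or medium for 66 h at 37 °C, then given MTT for 4 h and read at OD570/630. Stimulation Index = mean ConA OD / mean control OD per mouse.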

NK cell = NK cell cytotoxicity activity test (YAC-1 target cells, MTT) on spleen cells of treated mice; conditions: IFN-γ and IL-2 groups 3×10^5 IU/kg/day, X ± SD
In short: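 Mice (ten per group) dosed i.p. once daily for 15 days in 0.5 ml saline; spleens taken the next day, erythrocytes lysed with Tris-NH4Cl. Spleen cells (4×10^6/ml) mixed with YAC-1 targets (1×10^5/ml) in triplicate per mouse. Viability by MTT, 4 h at 37° C., OD570nm referenced at 630 nm.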

anti-SRBC antibody = test: Sheep Red Blood Cell (SRBC) hemolysis test, anti-SRBC antibody formation; conditions: SRBC on day 12, IFN-γ and IL-2 groups 3×10^5 IU/kg/day, X ± SD
In short: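 Mice got test substances plus 0.2 ml SRBC i.p. on day 12; serum taken day 16, diluted 500-fold, mixed with 2% SRBC and guinea pig complement, 10 min at 37 °C. Lysis read as OD540nm after Drabkin's, indexed against a reference SRBC OD540nm.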

[1] = immunity organ weight test (thymus gland index, spleen index); conditions: IFN-γ and IL-2 groups 3×10^5 IU/kg/day, X ± SD
In short: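 Substances in saline given i.p. once daily for 15 days; on day 16 liver, spleen and thymus excised, blotted and weighed. Thymus and spleen indices = organ weight/body weight ×100%; phagocytosis index α from body weight and liver-plus-spleen weight.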

[2] = peptide 0.5 μg/kg/day i.p. 15 days
[3] = peptide 5 μg/kg/day i.p. 15 days
[4] = peptide 50 μg/kg/day i.p. 15 days
[5] = peptide 500 μg/kg/day i.p. 15 days

B1: IFN-γ: recombinant mouse interferon-γ, Beijing Biotech Inc.; positive control immunostimulant (protein, UniProt P01580 23-155, looked up)
Interferon gamma: HGTVIESLESLNNYFNSSGIDVEEKSLFLDIWRNWQKDGDMKILQSQIISFYLRLFEVLKDNQAISNNISVIESHLITTFFSNSKAKKDAFMSIAKFEVNNPQVQRQAFNELIRVVHQLLPESSLRKRKRSRC
stimulation index (T lymphocyte transformation) (T lymphocyte; [2]): 1.6 ± 0.2 | stimulation index (T lymphocyte transformation) (T lymphocyte; [3]): 1.6 ± 0.2 | stimulation index (T lymphocyte transformation) (T lymphocyte; [4]): 1.7 ± 0.2 | stimulation index (T lymphocyte transformation) (T lymphocyte; [5]): 1.6 ± 0.2 | NK cell cytotoxic activity (NK cell activity index) (NK cell; [2]): 72 ± 9 % | NK cell cytotoxic activity (NK cell activity index) (NK cell; [3]): 80 ± 8 % | NK cell cytotoxic activity (NK cell activity index) (NK cell; [4]): 73 ± 10 % | NK cell cytotoxic activity (NK cell activity index) (NK cell; [5]): 77 ± 8 % | anti-SRBC antibody formation (sample serum index) (anti-SRBC antibody; [2]): 37 ± 10 Unit | anti-SRBC antibody formation (sample serum index) (anti-SRBC antibody; [3]): 37 ± 10 Unit | anti-SRBC antibody formation (sample serum index) (anti-SRBC antibody; [4]): 37 ± 10 Unit | anti-SRBC antibody formation (sample serum index) (anti-SRBC antibody; [5]): 37 ± 10 Unit | weight of spleen (spleen index) [1, 2]: 0.50 ± 0.04% | weight of thymus gland (thymus gland index) [1, 2]: 0.15 ± 0.04% | weight of thymus gland (thymus gland index) [1, 3]: 0.15 ± 0.04% | weight of spleen (spleen index) [1, 4]: 0.50 ± 0.04% | weight of thymus gland (thymus gland index) [1, 4]: 0.15 ± 0.04% | weight of thymus gland (thymus gland index) [1, 5]: 0.15 ± 0.04%
